The source of these data is paper PMC2993699.

The target in assay [1] is Pph with a C-terminal strep-tag and an N-terminal his-tag (His10-Ppr(Δ1-601)-StrepTag II, pET16b-Pph) (R. centenaria). Put plainly: SEC; crude soluble extract of E. coli C41 (DE3) with pET16b-Pph on Sephadex G-200, non-reducing conditions, 20 mM Tris pH 7.4, 40 mM NaCl, 20% glycerol; fractions by SDS-PAGE and Western blot against strep tag II. For orientation: In gel filtration, larger molecules generally elute earlier.

Assay [2] shares this target. Put plainly: resonant mirror spectroscopy (Iasys biosensor cuvette); purified Pph (50 μg/ml) immobilised on an aminosilane cuvette (via strep-tag to streptactin by the results); increasing concentrations of purified Rc-CheW, 30 minutes each; fractional saturation, Scatchard plot.
For assay [3], the target named is R. centenaria CheW (Rc-CheW) containing an N-terminal his-tag (R. centenaria) (UniProt P72251). Put plainly: pull-down; as a1, with increasing amounts of added ATP (0-20 mM).
Assay [4] has the same target. Briefly: pull-down; 50 μg purified his-Rc-CheW (bait) mixed with one in vitro translated [35S]-labelled prey, overnight at 37°C, bound to Cu(II)-Sepharose in 20 mM sodium phosphate pH 7.7, 200 mM NaCl, 50 mM imidazole; eluted with 500 mM imidazole; phosphorimaging; no ATP added (low ATP level, 2 mM, from the translation reaction).
Assay [5] has the same target. Put plainly: pull-down; as a1, residual ATP hydrolyzed by adding apyrase.

Sequence of UniProt P72251 (P72251 entry or part of it): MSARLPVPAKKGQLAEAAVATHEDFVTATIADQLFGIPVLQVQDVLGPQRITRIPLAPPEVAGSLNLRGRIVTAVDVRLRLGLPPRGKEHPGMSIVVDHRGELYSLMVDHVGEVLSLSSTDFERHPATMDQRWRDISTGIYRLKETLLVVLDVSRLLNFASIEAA

Usually stoichiometry N stands for the number of molecules, sites or subunits per partner or assembly. “Pph with a C-terminal strep-tag and an N-terminal his-tag (His10-Ppr(Δ1-601)-StrepTag II, pET16b-Pph) (domain or fragment)” registered a stoichiometry N in assay [1] of 2.
What is called Kd is a measure of binding affinity in units of concentration. In the case of “R. centenaria CheW (Rc-CheW) containing an N-terminal his-tag (from UniProt P72251 1-165) (natural protein)”, in assay [2], the Kd is 0.13 µM. That is a sub-micromolar value.
“histidine kinase domain Pph of Ppr, in vitro translated and [35S]-methionine labelled (from pSK4) (domain or fragment)” registered a Rc-CheW-bound Pph with added ATP (% of input) in assay [3] of 24%. The co-elution rate (% of input Pph) in assay [4] is 13%. Besides, the bound Pph with apyrase (% of input) in assay [5] stood at 5%.
